Data set [1] can be described thus: Luciferase assays: luminometer light output and time course. It counts as biochemical. The settings on record: for total light output: in vivo and in vitro assays of IPTG-induced colonies, corrected for spectral photosensitivity. The protocol: The activity levels were measured using a Luminescencer AB-2000 luminometer (Atto; Tokyo, Japan) by integration of total light emitted. The assay consisted of the addition of 50 μL of standard solution (2 mM ATP, 0.5 mM D-luciferin, 4 mM MgSO4 in 0.1 M Tris-HCl buffer, pH 8.0) to 10 μL of luciferase-containing extracts at 25° C. In vivo light intensities were measured after adding 50 μL of 0.5 mM D-luciferin in 0.1 M sodium citrate buffer pH 5.0 to 10 μL of bacterial suspension into a microtiter plate.

Substrate in data set [2]: Nc1ncnc2c1ncn2[C@@H]1O[C@H](COP(=O)(O)OP(=O)(O)OP(=O)(O)O)[C@@H](O)[C@H]1O
Kind of data set: KM determination, PhRE luciferase (light intensity in luminometer, Lineweaver-Burk plots). It counts as biochemical, Phrixothrix hirtus. The settings on record: other: ammonium sulfate fractionated extract, ATP 0.1-4 mM, 0.5 mM luciferin solution, 8 mM MgSO4, 0.1 M Tris-HCl, pH 8.0, 25° C. As for the experimental part: (§1) Liquid cultures of SOLR cells carrying luciferase insert containing pBl were grown on LB/amp (50 μg/mL) medium at 37° C. with shaking overnight. The preculture (1/100 vol) was then inoculated in LB/amp (50 μg/mL) in the presence of 1 mM IPTG and incubated at 23° C. during 24 h (OD600=1.8). The cells were harvested by centrifugation at 3000 rpm during 10 min at 4° C., and the pellet was resuspended in cold extraction buffer (0.1 M sodium phosphate buffer, pH 7.5, containing 2 mM EDTA, 1 mM DTT, and 1% Triton X-100). Lysozyme was added to the final concentration of 1 mg/mL and the suspension incubated 15 min at 0° C. and frozen at −80° C. during 15 min. The lysate was centrifuged at 12000 g at 4° C. during 15 min. The supernatant was then fractionated with ammonium sulfate. The fraction precipitated between 55% and 70% saturation was dissolved in cold extraction buffer and stored at −20° C. in the presence of glycerol 15%, to maintain the activity.
(§2) Measurements of light intensities for KM determinations were made using the luminometer described above. […] The assays were carried out at 25° C. Each point of the Michaelis-Menten curve was assayed in quadruplicate. The KM values were estimated by Lineweaver-Burk plots of the reciprocal of light intensities versus […].

Substrate in data set [3]: O=C(O)[C@H]1CSC(c2nc3ccc(O)cc3s2)=N1
Kind of data set: purified protein, by the assay type. The settings on record: other: ammonium sulfate fractionated extract, luciferin 0.03-2 mM, 4 mM ATP solution, 8 mM MgSO4, 0.1 M Tris-HCl, pH 8.0, 25° C.

Substrate in data set [4]: Nc1ncnc2c1ncn2[C@@H]1O[C@H](COP(=O)(O)OP(=O)(O)OP(=O)(O)O)[C@@H](O)[C@H]1O
Kind of data set: KM determination, PvGR luciferase (light intensity in luminometer, Lineweaver-Burk plots). It counts as biochemical, Phrixothrix vivianii. To be noted: other: ammonium sulfate fractionated extract, ATP 0.1-4 mM, 0.5 mM luciferin solution, 8 mM MgSO4, 0.1 M Tris-HCl, pH 8.0, 25° C. The protocol: as §1, §2

The source of these data is US7276363B2, “Nucleic acid molecules encoding red and green emitting luciferases” (Toyo Boseki Kabushiki Kaisha, priority 1998, dated 2007).

B1: PhRE: recombinant red light-emitting luciferase of Phrixothrix hirtus head lanterns, 546 amino acid residues (protein, listed as Phrixothrix hirtus)
chain: MEEENVVNGDRPRDLVFPGTAGLQLYQSLYKYSYITDGIIDAHTNEVISYAQIFETSCRLAVSLEKYGLDHNNVVAICSENNIHFFGPLIAALYQGIPMATSNDMYTEREMIGHLNISKPCLMFCSKKSLPFILKVQKHLDFLKRVIVIDSMYDINGVECVFSFDSRNTDHAFDPVKFNPKEFDPLERTALIMTSSGTTGLPKGVVISHRSITIRFVHSSDPIYGTRIAPDTSILAIAPFHHAFGLFTALAYFPVGLKIVMVKKFEGEFFLKTIQNYKIASIVVPPPIMVYLAKSPLVDEYNCSSLTEIASGGSPLGRDIADKVAKRLKVHGILQGYGLTETCSALILSPNDRELKKGAIGTPMPYVQVKVIDINTGKALGPREKGEICFKSQMLMKGYHNNPQATRDALDKDGWLHTGDLGYYDEDRFIYVVDRLKELIKYKGYQVAPAELENLLLQHPNISDAGVIEFRTNLLVNYLSACVVLEPGKTMTEKEVQDYIAELVTTTKHLRGGVVFIDSIPKGPTGKLMRNELRAIFAREQAKSKL
With B1, the “rise time to the peak of intensity and decay rate of in vitro bioluminescence reaction” value in data set [1] (compared with PvGR, results not shown) is recorded as “faster”. For the same molecule, the total light output result in data set [1] was “nearly the same values”.

B2: Phrixothrix hirtus red light-emitting luciferase PhRE, recombinant, wild type, SEQ ID NO: 4 (Phrixothrix hirtus) (protein)
chain: MEEENIVNGDRPRDLVFPGTAGLQLYQSLYKYSYITDGIIDAHTNEVISYAQIFETSCRLAVSLEKYGLDHNNVVAICSENNIHFFGPLIAALYQGIPMATSNDMYTEREMIGHLNISKPCLMFCSKKSLPFILKVQKHLDFLKKVIVIDSMYDINGVECVFSFVSRYTDHAFDPVKFNPKEFDPLERTALIMTSSGTTGLPKGVVISHRSITIRFVHSSDPIYGTRIAPDTSILAIAPFHHAFGLFTALAYFPVGLKIVMVKKFEGEFFLKTIQNYKIASIVVPPPIMVYLAKSPLVDEYNLSSLTEIACGGSPLGRDIADKVAKRLKVHGILQGYGLTETCSALILSPNDRELKKGAIGTPMPYVQVKVIDINTGKALGPREKGEICFKSQMLMKGYHNNPQATRDALDKDGWLHTGDLGYYDEDRFIYVVDRLKELIKYKGYQVAPAELENLLLQHPNISDAGVIGIPDEFAGQLPSACVVLEPGKTMTEKEVQDYIAELVTTTKHLRGGVVFIDSIPKGPTGKLMRNELRAIFAREQAKSKL
For orientation: Km means the concentration of substrate that gives half-maximal velocity. Consider B2, for which the Km in data set [2] came out at 240 µM; in data set [3], 20 µM.

B3: Phrixothrix vivianii green light-emitting luciferase PvGR, recombinant, wild type, SEQ ID NO: 2 (Phrixothrix vivianii) (protein)
chain: MEEENIRHGERPRDIVHPGSAGQQLYQSLYKFASFPEAIIDAHTNEVISYAQIFETSCRLAVSIEQYGLNENNVVGVCSENNINFFNPVLAALYLGIPVATSNDMYTDGELTGHLNISKPTIMFSSKKALPLILRVQQNLSFIKKVVVIDSMYDINGVECVSTFVARYTDHTFDPLSFTPKDFDPLEKIALIMSSSGTTGLPKGVVLSHRSLTIRFVHSRDPIYGTRTVPQTSILSLVPFHHAFGMFTTLSYFVVGLKVVMLKKFEGALFLKTIQNYKIPTIVVAPPVMVFLAKSPLVDQYDLSSLTEVATGGAPLGKDVAEAVAKRLKLPGIIQGYGLTETCCAVMITPHNAVKTGSTGRPLPYIKAKVLDNATGKALGPGERGEICFQSEMIMKGYYNNPEATIDTIDKDGWLHSGDIGYYDEDGNFFIVDRLKELIKYKGYQVAPAELENLLLQHPSIADAGVTGVPDEFGGQLPAACVVLESGKTLTEKEVQDFIAAQVTPTKHLRGGVVFVDSIPKGPTGKLIRKELREIFAQRAPKSKL
For B3, the Km in data set [4] was 350 µM; in data set [3], 150 µM. In addition, the total light output entry in data set [1] is reported as “nearly the same values”.
